Source: PMC6395731
pKd: −log10 of the molar value.

Experiments:
Test in all cases: EMSA
[1] = system: XRCC1 219-633 P1/3-YFP-NLS (Homo sapiens); conditions: 2 uM protein; EMSA: 5 nM DNA, 12 mM Tris pH 8.0, 100 mM NaCl, 20 mM KCl, 3 mM MgCl2, 1 mM EDTA, 0.1% CHAPS, 10 mM 2-mercaptoethanol, 8.5% glycerol, BSA (0.02 mg/mL), room …
[2] = system: XRCC1 219-633 (Homo sapiens); conditions: EMSA: 5 nM DNA, 12 mM Tris pH 8.0, 100 mM NaCl, 20 mM KCl, 3 mM MgCl2, 1 mM EDTA, 0.1% CHAPS, 10 mM 2-mercaptoethanol, 8.5% glycerol, BSA (0.02 mg/mL), room …
[3] = system: XRCC1 full length (Homo sapiens); conditions: EMSA: 5 nM DNA, 12 mM Tris pH 8.0, 100 mM NaCl, 20 mM KCl, 3 mM MgCl2, 1 mM EDTA, 0.1% CHAPS, 10 mM 2-mercaptoethanol, 8.5% glycerol, BSA (0.02 mg/mL), room …
[4] = system: XRCC1 219-415 (CDB) (Homo sapiens); conditions: EMSA: 5 nM DNA, 12 mM Tris pH 8.0, 100 mM NaCl, 20 mM KCl, 3 mM MgCl2, 1 mM EDTA, 0.1% CHAPS, 10 mM 2-mercaptoethanol, 8.5% glycerol, BSA (0.02 mg/mL), room …

39 bp duplex
binding signal (% of wild type) [1]: 6 | pKd [2]: 6.15 | pKd [3]: 6.21 | pKd [4]: 6.17
